Results on one protein are retold here after ChEMBL document CHEMBL2073860, “A third human carnitine/organic cation transporter (OCTN3) as a candidate for the 5q31 Crohn's disease locus (IBD5)” (Biochem Biophys Res Commun, 2003).

Substrate in this data set: C[N+](C)(C)CC(O)CC(=O)[O-]
The data set is described as follows: TP_TRANSPORTER: uptake in Octn3-HepG2 cells. In kind it is functional, cell-based.

B1: Solute carrier family 22 member 21 (Mus musculus), Q9WTN6 (protein)
chain: MLDYDEVTAFLGEWGTFQRLIFFLLSASIIPNGFTGLSAVFLTAIPEHRCRIPDTVNLSSAWRNHSIPMETKDGPEVPQKCRRYRLATIANFSELGLEPGRDVDLEQLEQENCLDGWEYDKDIFLSTIVTEWDLVCKDDWKAPLTTSFFYVGVLLGSFISGQLSDRFGRKNILFLTMAMHTGFSFIQVFSVNFEMFTLLYTLVGMGHISNYVAAFVLGTEMLSKSVRIIFATLGVCIFFAFGFMVLPLFAYFIREWRRLLLAITLPGVLCGALWWFIPESPRWLISQGRIKEAEVIIRKAAKINGIVAPSTIFDPSETNKLQDDSSKKPQSHHIYDLVRTPNIRILTIMSIILWLTISVGYFGLSLDTPNLNGNIYVNCFLLAAVEVPAYVLAWLLLQHVSRRYSMAGSLFLGGSVLLLVQLVPSDLHYLSTTLVMVGKFGITSAYSMVYVYTAELYPTVVRNMGVGVSSTASRLGSILSPYFVYLGAYDRRLPYILMGSLTILTAIITLFFPESSGVSLPETIDEMQKVKKLKQRQSLSKKGSPKESKGNVSRTSRTSEPKGF
The Km is the concentration of substrate that gives half-maximal velocity. As to B1, the Km came to 20 µM.
